Results taken from patent US20230014722A1 (CSTONE PHARMACEUTICALS, published 2023).
Positions count from the first letter of the chain named. Blank lines part the entries; values can stand above or below the binder they belong to.

What was measured:
[1] = target: T1, mouse PD-1 on transfected 293F cells (mouse, UniProt Q02242 25-288); assay: FACS, mouse PD-1 transfected 293F cells
T1 construct: whole, on cells; also called cell surface mouse PD-1
T1 sequence (looked up): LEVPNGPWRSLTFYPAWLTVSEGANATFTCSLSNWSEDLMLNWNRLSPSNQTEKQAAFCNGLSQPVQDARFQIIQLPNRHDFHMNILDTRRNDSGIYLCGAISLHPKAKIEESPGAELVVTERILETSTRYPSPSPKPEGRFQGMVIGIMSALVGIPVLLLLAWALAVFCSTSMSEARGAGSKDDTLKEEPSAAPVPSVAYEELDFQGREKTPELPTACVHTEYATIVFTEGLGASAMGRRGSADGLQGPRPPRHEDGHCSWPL

[2] = target: T2, human PD-1 on transfected cells (human, UniProt Q15116 25-288); assay: FACS, human PD-1 transfected CHO-S cells
T2 construct: also called CHO-S cells expressing human PD-1; human PD-1 transfected CHO-S cells
T2 sequence (Q15116 25-288 limits assumed): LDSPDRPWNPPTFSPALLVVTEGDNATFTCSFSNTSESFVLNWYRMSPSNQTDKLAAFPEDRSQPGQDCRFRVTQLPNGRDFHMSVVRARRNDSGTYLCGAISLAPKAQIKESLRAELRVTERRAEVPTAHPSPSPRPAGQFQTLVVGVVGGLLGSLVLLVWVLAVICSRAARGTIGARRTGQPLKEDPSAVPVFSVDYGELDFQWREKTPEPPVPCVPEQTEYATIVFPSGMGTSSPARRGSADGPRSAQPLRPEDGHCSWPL

[3] = target: T3, human PD-1 (Sino Biological), coated on plates (human, UniProt Q15116 25-167); assay: ELISA, plates coated with human PD-1 at 1 µg/ml
T3 construct: whole entry named
T3 sequence (Q15116 25-167 limits assumed): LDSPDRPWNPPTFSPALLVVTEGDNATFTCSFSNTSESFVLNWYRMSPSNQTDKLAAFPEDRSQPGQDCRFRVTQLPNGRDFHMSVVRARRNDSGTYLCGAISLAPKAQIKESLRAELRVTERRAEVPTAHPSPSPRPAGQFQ
Experimental: (§1) For ELISA, plates (Nunc) were coated with human, cynomolgus or mouse PD-1 (Sino Biological) at 1 μg/ml overnight at 4° C. After blocking and washing, antibodies were serially diluted in blocking buffer and added to the plates and incubated at room temperature for 1 h. The plates were then washed and subsequently incubated with secondary antibody goat anti human IgG HRP (Bethyl) for 1 h. After washing, TMB substrate was added and the reaction was stopped by 2 M HCl. The absorbance at 450 nm was read using a microplate reader (Molecular Device).

[4] = target: T4, mouse PD-1 (Sino Biological), coated on plates (mouse, UniProt Q02242 25-167); assay: ELISA, plates coated with mouse PD-1 at 1 µg/ml
T4 sequence (looked up): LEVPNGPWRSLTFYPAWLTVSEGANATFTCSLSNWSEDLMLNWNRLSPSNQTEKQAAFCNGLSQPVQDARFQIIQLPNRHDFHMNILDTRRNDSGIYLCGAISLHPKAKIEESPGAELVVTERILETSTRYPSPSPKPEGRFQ
Experimental: as §1

[5] = target: cynomolgus PD-1 (Sino Biological), coated on plates (cynomolgus, UniProt B0LAJ3 25-170); assay: ELISA, plates coated with cynomolgus PD-1 at 1 µg/ml
Chain of cynomolgus PD-1 (Sino Biological), coated on plates (B0LAJ3 entry or part of it limits assumed): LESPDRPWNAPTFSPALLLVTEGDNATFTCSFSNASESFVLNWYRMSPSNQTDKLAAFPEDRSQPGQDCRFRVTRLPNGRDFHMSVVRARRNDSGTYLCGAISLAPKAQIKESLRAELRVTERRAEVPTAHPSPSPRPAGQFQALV
Experimental: as §1

[6] = target: T1, mouse PD-1 on transfected 293F cells; assay: flow cytometry on 293F cells expressing mouse PD-1, quantitative beads
Experimental: (§2) Testing antibodies were 1:2 serially diluted in wash buffer (1×PBS/1% BSA) and incubated with cells at 4° C. for 1 h.

[7] = target: T2, human PD-1 on transfected cells; assay: flow cytometry on CHO-S cells expressing human PD-1, quantitative beads
Experimental: as §2

[8] = target: T5, human CD28 on a constructed cell line (human, UniProt P10747 19-220); assay: FACS, CD28.CHO-K1 cells, one antibody concentration (not given)
T5 construct: whole, on cells
Experimental: (§3) Constructed cell lines that respectively express human PD-1, CD28, CTLA-4 or ICOS were transferred in to 96-well U-bottom plates (BD) at a density of 2×10⁵ cells/well. Testing antibodies were diluted in wash buffer (1×PBS/1% BSA) and incubated with cells at 4° C. for 1 h. After washing, the secondary antibody goat anti-human IgG Fc FITC (Jackson ImmunoResearch Lab) was added and incubated at 4° C. in the dark for 1 h. The cells were then washed once and resuspended in 1×PBS/1% BSA, and analyzed by flow cytometery (BD) and FlowJo software.

[9] = target: T6, human CTLA-4 on a constructed cell line (human, UniProt P16410 36-223); assay: FACS, CTLA-4.293F cells, one antibody concentration (not given)
T6 construct: whole, on cells
T6 sequence (P16410 36-223): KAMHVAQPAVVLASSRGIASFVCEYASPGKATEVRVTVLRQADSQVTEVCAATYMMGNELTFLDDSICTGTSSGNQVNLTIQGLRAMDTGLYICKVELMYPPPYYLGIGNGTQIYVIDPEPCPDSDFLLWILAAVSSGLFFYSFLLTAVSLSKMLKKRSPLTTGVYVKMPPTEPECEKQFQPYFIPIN
Experimental: as §3

hPD-1.His = target: T7, hPD-1.His (human, UniProt Q15116 25-170); assay: SPR (ProteOn XPR36), antibody captured on Protein A, PD-1.His as analyte, 1:1 fit
T7 construct: the SPR text says only human PD-1; also called human PD-1 (SPR analyte)
T7 sequence (Q15116 25-170): as the sequence (B0LAJ3 entry or part of it limits assumed) above, with E2D, A10P, L19V, A35T, R75Q, A144T counted along it
Text: (§4) Antibodies were characterized for affinity and binding kinetics to PD-1 by SPR assay using ProteOn XPR36 (Bio-Rad). Protein A protein (Sigma) was immobilized to a GLM sensor chip (Bio-Rad) through amine coupling. Purified antibodies were flowed over the sensor chip and captured by the Protein A. The chip was rotated […] and washed with running buffer (1×PBS/0.01% Tween20, Bio-Rad) until the baseline was stable. Seven concentrations of human PD-1 and running buffer were flowed through the sensor chip at a flow rate of 30 μL/min for an association phase of 180 s, followed by 300s dissociation. After regeneration, seven concentration of mouse PD-1 and running buffer were flowed through the sensor chip at a flow rate of 30 μL/min for an association phase of 180 s, followed by 300 s dissociation. The chip was regenerated with pH 1.5 H₃PO₄ after each run. The association and dissociation curve was fit by 1:1 Langmuir binding model using ProteOn software.

mPD-1.His = target: T8, mPD-1.His (mouse, UniProt Q02242 25-167, limits assumed); assay: as above
T8 construct: Soluble analyte, probably the extracellular domain; also called mouse PD-1 (SPR analyte)
T8 sequence (looked up): T4 sequence (looked up)
Text: as §4

[10] = target: human PD-1 antigen protein of the affinity-maturation screen (human, UniProt Q15116 25-167, limits assumed, biotinylated); assay: capture ELISA, second-round affinity-maturation screen (scFv format likely); unit not given
Chain of human PD-1 antigen protein of the affinity-maturation screen (Q15116 25-167 limits assumed): as the sequence (Q15116 25-167 limits assumed) above

[11] = target: T9, mouse PD-1 antigen protein of the affinity-maturation screen (mouse, UniProt Q02242 25-167, limits assumed, biotinylated); assay: as above
T9 sequence (looked up): T4 sequence (looked up)

[12] = target: cynomolgus PD-1 antigen protein of the affinity-maturation screen (cynomolgus); assay: as above
[13] = target: T1, mouse PD-1 on transfected 293F cells; assay: FACS blocking assay: mouse Fc fusion-mouse PD-L1 binding to mouse PD-1 transfected 293F cells
[14] = target: T2, human PD-1 on transfected cells; assay: FACS blocking assay: mouse Fc fusion-human PD-L1 binding to human PD-1 transfected CHO-S cells
[15] = target: T2, human PD-1 on transfected cells; assay: FACS competition on CHO-S cells expressing human PD-1 against biotinylated Keytruda at 1 µg/ml
Experimental: (§5) The cells were washed and the second antibody Streptavidin-PE were added and incubated for 30 min at 4° C. The cells were then washed once and resuspended in 1×PBS/1% BSA, and analyzed by flow cytometery (BD).

[16] = target: T2, human PD-1 on transfected cells; assay: FACS competition on CHO-S cells expressing human PD-1 against biotinylated WBP305BMK1 at 1 µg/ml
Experimental: as §5

- EC50 [1]: 11.8 nM
- EC50 [2]: 2.36 nM
- EC50 [3]: 0.12 nM
- EC50 [4]: 0.41 nM
- EC50 [5]: 0.12 nM
- Kd [6]: 17.4 nM
- Kd [7]: 0.264 nM
- binding result [8]: no binding
- binding result [9]: no binding
- Kd (hPD-1.His): 5.64 nM
- koff (hPD-1.His): 0.00414 s⁻¹
- kon (hPD-1.His): 733000 M⁻¹ s⁻¹
- Kd (mPD-1.His): 6.92 nM
- koff (mPD-1.His): 0.00153 s⁻¹
- kon (mPD-1.His): 221000 M⁻¹ s⁻¹
- Bmax [10]: 3.17
- Bmax [11]: 0.416
- Bmax [12]: 1.67
- IC50 [13]: 16.7 nM
- IC50 [14]: 2.2 nM
- IC50 [15]: 11.1 nM
- IC50 [16]: 6.55 nM
B1: 2C2 (antibody, human IgG4, V domains shown)
VH: QVQLVQSGAEVKKPGSSVKVSCKASGFTFTTYYISWVRQAPGQGLEYLGYINMGSGGTNYNEKFKGRVTITADKSTSTAYMELSSLRSEDTAVYYCAIIGYFDYWGQGTMVTVSS
VL: DVVMTQSPLSLPVTLGQPASISCRSSQSLLDSDGATYLYWFQQRPGQSPRRLIYLVSTLGSGVPDRFSGSGSGTDFTLKISRVEAEDVGVYYCMQLTHWPYTFGQGTKLEIK

- EC50 [1]: 14.8 nM
- EC50 [2]: 2.78 nM
- EC50 [3]: 0.21 nM
- EC50 [4]: 0.2 nM
- EC50 [5]: 0.36 nM
- Kd [6]: 35.1 nM
- Kd [7]: 0.38 nM
- binding result [8]: no binding
- binding result [9]: no binding
- Kd (hPD-1.His): 7.09 nM
- koff (hPD-1.His): 0.0047 s⁻¹
- kon (hPD-1.His): 663000 M⁻¹ s⁻¹
- Kd (mPD-1.His): 3.89 nM
- koff (mPD-1.His): 0.0013 s⁻¹
- kon (mPD-1.His): 334000 M⁻¹ s⁻¹
- Bmax [10]: 3.37
- Bmax [11]: 0.479
- Bmax [12]: 1.72
- IC50 [13]: 18.7 nM
- IC50 [14]: 2.23 nM
- IC50 [15]: 17.2 nM
- IC50 [16]: 8.93 nM
B2: 2G4 (antibody, human IgG4, V domains shown)
VH: B1 VH
VL: B1 VL with A35S
